Data: the RNAGym collection of RNA variant scans (doi:10.7554/elife.80360)

B1: HDV Ribozyme (parent)
chain: GGCCGGCAUGGUCCCAGCCUCCUCGCUGGCGCCGGCUGGGCAACAUUCCGAGGGGACCGUCCCCUCGGUAAUGGCGAAUGGGACCCA

Variants of: B1
Experiment: self-cleavage, relative activity (ratio to wild type); higher = more cleavage; co-transcriptional

Compared with GGCCGGCAUGGUCCCAGCCACCUCGCUGGCGCCGGCUGGCCAACAUUCCGAGGGGACCGUCCCCUCGGUAAUGGCGAAUGGGACCCA, GGCCGGCAUGGUCCCAGCCUCCUCGCUGGCGCCGGCUGGGAAACAUUCCGAGGGGACCGUGCCCUCGGUAAUGGCGAAUGGGACCCA is higher in self-cleavage: 0.178 for the first, 0.909 for the second.

First: GGCCGGCAUGGUCCCAGCCUCCUGGCUGGCGCCGGCUGGGCAACAUUCCGAGGGGACCGUCCCCUCGGUAAUGGGGAAUGGGACCCA
Second: UGCCGGCAUGGUCCCAGCCUCCUCGCUGGCGCCGGCUGGGCAACAUUCCGAGGGGACCGUCCCCUCGGUAAUGGCGAAUGGGACACA
The self-cleavage of the first is lower: 0.13 for the first, 0.361 for the second.

Going from GGCCGGCAUGGUCCCAGCCACCUCGCUGGCGCCGGCUGGGCAACAUUCUGAGGGGACCGUCCCCUCGGUAAUGGCGAAUGGGACCCA to GGCCGGCAAGGUCCCAGCCUCCUCGCUGGCGCCGGCUGGGCAACAUUCCGAGGGGACCGUCCCCACGGUAAUGGCGAAUGGGACCCA, the self-cleavage rises from 0.0665 to 1.05.

Going from GACCGGCAUGGUCCCAGCCUCCUCGCUGGCGCCGGCUGGGCAACAUUCCGAUGGGACCGUCCCCUCGGUAAUGGCGAAUGGGACCCA to GGCCGGCAUGGUCCCAGCUUCCUCGCUGGCGCCGGCUGGACAACAUUCCGAGGGGACCGUCCCCUCGGUAAUGGCGAAUGGGACCCA, the self-cleavage falls from 0.201 to 0.0944.

Compared with GGCCGGCAUGGUCCCAGCCUCCUCGCUGGCGCCGGCUGGGCAACAUUCCAAGGGGACGGUCCCCUCGGUAAUGGCGAAUGGGACCCA, GGCCGGCAUGGUCCCAGCCUCCUCGCUGGCGCCGGCUGGGCAACAUUCCGAGCGGACCGUCACCUCGGUAAUGGCGAAUGGGACCCA is higher in self-cleavage: 0.909 for the first, 0.937 for the second.

First: CGCCGGCAUGGUCCCAGCCUCAUCGCUGGCGCCGGCUGGGCAACAUUCCGAGGGGACCGUCCCCUCGGUAAUGGCGAAUGGGACCCA
Second: GGCCGGCAUGUUCCCAGCCUCCUCGCUGGCGCCGGCUGGGCAGCAUUCCGAGGGGACCGUCCCCUCGGUAAUGGCGAAUGGGACCCA
The self-cleavage of the first is higher: 0.203 for the first, 0.0339 for the second.

Compared with GGCCGGCAUGGUACCAGCCUCCUCGCUGGCGCUGGCUGGGCAACAUUCCGAGGGGACCGUCCCCUCGGUAAUGGCGAAUGGGACCCA, GGCCGGCAUGGUCCCAGCCUCCUCGCUGGCGCCGGCUGGGCAACAUUCCGAGUGGACCGUCCCCUCGGUAAUGGCGUAUGGGACCCA is higher in self-cleavage: 0.369 for the first, 0.623 for the second.

First: GGCCGGCAUGGUCCCAGCCUCCUCGCUGGCGCCGGCUGGGCAACAUUCCGAGGGGACCGUCCCCGCGGUAAUCGCGAAUGGGACCCA
Second: GGCCGGCAUGGUCCCAGCCUCCUCGCUGGCGCCAGCUGGGCAACAUUCCGAGGGGACCGUCCCCUCGGUAAUGGCGAAAGGGACCCA
The self-cleavage of the first is higher: 0.289 for the first, 0.0755 for the second.

Going from GGCCGGCAUGGUCCCAGCCUCCUCGCUGGCGCCGGCUGGGCAACAUUCCGAGGCGACCGUCCCCUCGGUAAUGUCGAAUGGGACCCA to GGCCGGCAUGGUCCCAGCCUACUCGCUGGCGCCGGCUGGGCAACAUUCCGAGGGGACCGUCCCCUCGGUAAUGGCGAAUUGGACCCA, the self-cleavage falls from 0.475 to 0.0622.

First: GGCCGGGAUGGUCCCAGCCUCCUCGCUGGUGCCGGCUGGGCAACAUUCCGAGGGGACCGUCCCCUCGGUAAUGGCGAAUGGGACCCA
Second: GGCCGGCAUGGUCCCAGCCUCCUCGCUGGCGCCGGCUGGGCAACAUUUCGAGGGGACCGUCCCCUCGGUAAUGGCGCAUGGGACCCA
The self-cleavage of the first is lower: 0.138 for the first, 0.57 for the second.

Compared with GGCCGGCAUGGUCCCAGCCUCCUCGCUGGCGCCGGCUGGUCAACAUUCCGAGGGGACCAUCCCCUCGGUAAUGGCGAAUGGGACCCA, GGCCGGCAUGGUCCCAGCGUCUUCGCUGGCGCCGGCUGGGCAACAUUCCGAGGGGACCGUCCCCUCGGUAAUGGCGAAUGGGACCCA is lower in self-cleavage: 0.812 for the first, 0.0804 for the second.

Going from GGCCGGCAUGGUCCCAGCCUCCUCGCUGGCGGCGGCUGGGCAACAUUCCGAGGGGACCGUCACCUCGGUAAUGGCGAAUGGGACCCA to GGCCGGCAUGGUCCCAGCCUCCUCGCUGGCGCCGGCUGGGUAACAUUCCGAGGGGACCGUCCCCUCGGUAAUGGCAAAUGGGACCCA, the self-cleavage rises from 0.148 to 0.95.

Compared with GGCCGGCAUGGUCCCACCCUCCUCGCUGGCGCCGGCUGGGCAACAUUCCGAGGGGACCGUCCCCUCGGUAAUGCCGAAUGGGACCCA, GGCCGGCAUGGACCCAGCCUCCUCGCUGGCGCCGGCUGGGCAACAUUCCGAGGGGACCGUCCCCUCGGUAAUGGCGAAUCGGACCCA is higher in self-cleavage: 0 for the first, 0.0852 for the second.

First: GGCCGGCAUAGUCCCAGCCUCCUCGCUGGCGCCGGCUGGGCAACAUUCCGCGGGGACCGUCCCCUCGGUAAUGGCGAAUGGGACCCA
Second: GGCCGGCAUGGUCCCAGCCUCCUCGCUGGCCCAGGCUGGGCAACAUUCCGAGGGGACCGUCCCCUCGGUAAUGGCGAAUGGGACCCA
The self-cleavage of the first is higher: 0.623 for the first, 0.0875 for the second.

Compared with GGCCGGCAUGGUCCCAGCCUCCUCGCUGGCGCCGGCUGGGAAACAUUCCGAGGGGACCGUCCCCUCGGUAAUGGCGAAUGGGACCCG, GGCCGGCAUGGUCCCAGCCUCCUCGCUGGCGCCGGCUGGGCAACAUUCCCAGGGGACCGUCCCCUCGGUAAUGGCGAAUGGGUCCCA is lower in self-cleavage: 0.883 for the first, 0.504 for the second.

First: GGCCGGCAUGGGCCCAGCCUCCUCGCUGGCGCCGGCUGGGCAACAUUCCGAGGGGACCGUCCCCUCGGUAAUUGCGAAUGGGACCCA
Second: GGCCGGCAUGGUCCCAGCCUCCUCGCUGGCGCCGUCUGGGCAACGUUCCGAGGGGACCGUCCCCUCGGUAAUGGCGAAUGGGACCCA
The self-cleavage of the first is lower: 0.166 for the first, 0.365 for the second.
